B1: zona pellucida glycoprotein ZP3: ZP3(32–178)N124D (protein)
parent chain: MGPCSRLFVCFLLWGSTELCSPQPFWDDETERFRPSKPPAVMVECQEAQLVVTVDKDLFGTGKLIRPADLTLGPDNCEPLASADTDGVVRFAVGLHECGNILQVTDNALVYSTFLLHNPRPAGNLSILRTNRAEVPIECHYPRQGNVSSWAIQPTWVPFRTTVFSEEKLVFSLRLMEENWSAEKMTPTFQLGDRAHLQAQVHTGSHVPLRLFVDHCVASLTPDWSTSPYHTIVDFHGCLVDGLTDASSAFKAPRPRPEILQFTVDVFRFANDSRNMIYITCHLKVTPVDRVPDQLNKACSFSKSSNRWSPVEGPTDICRCCSKGRCGISGRSMRLSHREGRPVPRSRRHVTEEADVTVGPLIFLRKMNDRGVEGPTSSPPLVMLGLGLATVMTLTLAAIVLGLTGRLRAASHPVCPVSASQ
B2: zona pellucida glycoprotein ZP3: ZP3(32–178)N124,146D (protein)
parent chain: MGPCSRLFVCFLLWGSTELCSPQPFWDDETERFRPSKPPAVMVECQEAQLVVTVDKDLFGTGKLIRPADLTLGPDNCEPLASADTDGVVRFAVGLHECGNILQVTDNALVYSTFLLHNPRPAGNLSILRTNRAEVPIECHYPRQGNVSSWAIQPTWVPFRTTVFSEEKLVFSLRLMEENWSAEKMTPTFQLGDRAHLQAQVHTGSHVPLRLFVDHCVASLTPDWSTSPYHTIVDFHGCLVDGLTDASSAFKAPRPRPEILQFTVDVFRFANDSRNMIYITCHLKVTPVDRVPDQLNKACSFSKSSNRWSPVEGPTDICRCCSKGRCGISGRSMRLSHREGRPVPRSRRHVTEEADVTVGPLIFLRKMNDRGVEGPTSSPPLVMLGLGLATVMTLTLAAIVLGLTGRLRAASHPVCPVSASQ
B3: zona pellucida glycoprotein ZP3: ZP3(32–178)N146D (protein)
parent chain: MGPCSRLFVCFLLWGSTELCSPQPFWDDETERFRPSKPPAVMVECQEAQLVVTVDKDLFGTGKLIRPADLTLGPDNCEPLASADTDGVVRFAVGLHECGNILQVTDNALVYSTFLLHNPRPAGNLSILRTNRAEVPIECHYPRQGNVSSWAIQPTWVPFRTTVFSEEKLVFSLRLMEENWSAEKMTPTFQLGDRAHLQAQVHTGSHVPLRLFVDHCVASLTPDWSTSPYHTIVDFHGCLVDGLTDASSAFKAPRPRPEILQFTVDVFRFANDSRNMIYITCHLKVTPVDRVPDQLNKACSFSKSSNRWSPVEGPTDICRCCSKGRCGISGRSMRLSHREGRPVPRSRRHVTEEADVTVGPLIFLRKMNDRGVEGPTSSPPLVMLGLGLATVMTLTLAAIVLGLTGRLRAASHPVCPVSASQ

Assay: competitive inhibition, sperm binding to ZP-coated wells
Settings: glycan lost; control: ZP3(32–178)/ZP4

Protein | other: inhibition of sperm-ZP binding
B1 | no change
B2 | decreases
B3 | decreases
